The results in this text go back to PMC12533313 (2025).

In the experiment the target is α‐synuclein preformed fibrils (UniProt P37840 1-140). Put plainly: SPR. On the technique in general: In SPR one partner is held on a chip, and binding of the other changes the refractive index at the surface.

B1: Recombinant mouse 24p3R protein (receptor)
chain: MPSARFGRRGIVLLTLGLVGPCGVGGAAAGSSTGIMALRFLLGFLLAGVDLGVYLMRLELCDPTQRLRVALAGELVGVGGHFLFLGLALVSKDWRFLQRMITAPCILFLFYGWPGLFLESARWLIVKRQIEEAQSVLRILAERNRPHGQMLGEEAQEALQELENTCPLPATSTFSFASLLNYRNIWKNLLILGFTNFIAHAIRHCYQPVGGGGSPSDFYLCSLLASGTAALACVFLGVTVDRFGRRGILLLSMTLTGIASLVLLGLWDYLNDAAITTFSVLGLFSSQASAILSTLLASEVIPTTVRGRGLGLIMALGALGGLSCPAQRLHMGHGAFLQHVVLAACALLCILSIMLLPETKRKLLPEVLRDGELCRRPSLLRQPPPNRCDHVPLLATPNPAL
Molecule B1 displayed a dissociation constant (Kd) of 6.67 µM.

In general, Kd refers to the free concentration of one partner at which half of the binding sites on the other are occupied at equilibrium, for simple one-to-one binding.
